Reference: article PMC9605866, “Structures of the TMC-1 complex illuminate mechanosensory transduction” (Nature, 2022)

Legend:
[1] = target: the molecule itself; experiment: single-molecule pulldown (SiMPull) with photobleaching step counting; SEC-purified mVenus-tagged TMC-1 complex (Flag peptide elution) diluted 1:200, captured on biotinylated anti-GFP nanobody on streptavidin/PEG slides, TIRF; 20 mM Tris pH 8.0, 150 mM NaCl, 0.02% GDN, 3 mM CaCl2; 600 molecules from 3 movies
[2] = target: the molecule itself; experiment: cryo-EM structure; native TMC-1 complex in GDN, 20 mM Tris-Cl pH 8.5, 150 mM NaCl, 3 mM CaCl2, on 2 nm carbon-coated grids; one dataset, three classes: expanded, contracted, with ARRD-6

B1: transmembrane channel-like protein 1 (TMC-1) with C-terminal mVenus and 3×Flag tag, from tmc-1::mVenus knock-in worms (natural protein, C. elegans, UniProt D3KZG3 1-1285, looked up)
chain: MQEAARRASLRKEHTPTNEKFGDLSKQDSLGERASSKLTLDDELYDILYAFGETDAFINKGDKQRETDEDGNPLTRQALLERIRQKKEVIGKLRCQAWSMTRKRRTLKLAQKYLEQHESKVSRSHLYMEEMRKRARLMKRSFSNFKTYLIPWESKIKRIESHFGSVVSSYFTFLRWIVFVNIMITLIALVFVVLPETLADSVANEGRFNRTKTRKQIPANERVHADELAVVWHYDGYLRYSPLFYGYYSDDPFLGNKIKYALPLAYFMVTLTIFAYSFFAILRKMAANARMSKLSGSKAEQYIFNWKLFTGWDYTIGNSETASNTVMAVVIKLRESIADIKKDAHGKFRLLQFSLRVFANIIICAMLGFSIYCIIFAVQKSQVQDDGNLFTKNQVPSVVSTITHVFPMIFDLIGKMENYHPRTALRAHLGRVLILYTVNYITLIFALFEKMTALRDRVNSTSTSSSHRTKRQQGGWNPNMQRPPPYASRAEVRQMSDFLAANTRRFQTVSQRTTRSVTTPFTVAPQFGPFNVNNPNAVFHNGTHSTSFESQILGPKALPIFTPPPRKYPGFTPGNVGQQFGGPDFPRNQVYTKSTPLPRVRTKPPWVYTTTHPPLVQNRAMTTTMSKSAKKGNSKNLDDDILLSNETIQMSEAALRRNHDGHNNDICWETIIGQEIVKLVTMDLIFTILSILVIDLFRGLWIKYCSSWWCWDIETTFPEYGEFKVAENVLHIINNQGMIWLGLFFAPLLPAINNIKLIILMYIRGWAVMTCNVPAREIFRASRSSNFYLGILLIWLLLCTLPVGFVIASMSPSRSCGPFARYQHFYTVVTREIEKRVDQTVLSYIRHIASPGVVIPIILFLILIIYFLFSLVRGLREANTDLQAQLVHERTEEKKKIFELAGGKKNKFEKDRDKKRSNDYIPLIEQRRREPWRQYHEMEADHALASDSSEESDINEDEDDERQPLTAYPLRAIETPPETLQVTAFHPSLGSLIENREMEDEESASGDQLPMIHKSVSFQGPSHMQMRQSISTESCSQISRSAIQVATPEEIRALLRPYLEAKYGIPYQHGIKSFPIDVHTPPNNTPSRRSSKYNSFVSLYEHTRDDHKNFVASTIKETDEDPGKSDKKQTSSKDVAPDFMPWPSADEARALREKMKSKTPLMLTKTTVEEKPKGGKSSESEFRPPVPIHRKYNIQTTEEENEEEETDSAPESSKKRFRISVSPTKTIAPASASRAQHKIVSQASSSSSIPHGRQPDPNKKASLVLPPLRAPRVQFDEDDSPRQID
notes: TMC-1, C. elegans, endogenous gene (Wormbase T13G4.3.1); mVenus-3×Flag inserted immediately before the stop codon, PreScission (3C) site between the C terminus of TMC-1 and mVenus; residues M1 to D1285; that sample was afterwards eluted by 3C cleavage and run on SEC) and as imaged in SiMPull (Flag peptide elution, mVenus kept); also called TMC-1-mVenus-3×Flag; mVenus-tagged TMC-1; source: …
- stoichiometry N [1]: 2

B2: transmembrane channel-like protein 1 (TMC-1), native, after 3C protease elution (natural protein, C. elegans, UniProt D3KZG3 1-1285, looked up)
chain: B1 chain
modifications: N-glycan at N209
notes: TMC-1, C. elegans, endogenous gene (Wormbase T13G4.3.1); residues M1 to D1285; not modelled: M1-P73, S460-N663, L886-D1285; Residues of the 3C site may remain at the C terminus after cleavage; Two copies stand in the complex (two-fold symmetric dimer); also called TMC-1 subunit; TMC-1 protomer; source: endogenous tmc-1 locus, tmc-1::mVenus knock-in worms; purified (anti-Flag M2 resin, 3C protease …)
- stoichiometry N [2]: 2
